Key:
[1] = target: T1, human CXCR5 (human, UniProt P32302 1-372); experiment: cell-based or functional assay
T1 sequence: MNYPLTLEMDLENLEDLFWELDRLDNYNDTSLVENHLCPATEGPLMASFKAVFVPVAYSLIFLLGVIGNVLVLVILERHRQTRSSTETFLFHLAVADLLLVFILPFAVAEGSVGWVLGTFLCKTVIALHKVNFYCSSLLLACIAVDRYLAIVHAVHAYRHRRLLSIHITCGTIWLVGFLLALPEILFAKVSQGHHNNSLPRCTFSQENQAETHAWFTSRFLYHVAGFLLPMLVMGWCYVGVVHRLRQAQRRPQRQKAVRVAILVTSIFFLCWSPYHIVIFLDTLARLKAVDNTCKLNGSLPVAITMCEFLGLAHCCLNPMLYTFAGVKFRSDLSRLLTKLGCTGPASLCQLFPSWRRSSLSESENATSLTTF

[2] = target: T2, CXCR1 (human, UniProt P25024 1-350); experiment: flow cytometry (GMFI) on fixed CXCR1 cells, chimeric antibody, goat anti-human PE
T2 construct: whole, on cells
T2 sequence (looked up): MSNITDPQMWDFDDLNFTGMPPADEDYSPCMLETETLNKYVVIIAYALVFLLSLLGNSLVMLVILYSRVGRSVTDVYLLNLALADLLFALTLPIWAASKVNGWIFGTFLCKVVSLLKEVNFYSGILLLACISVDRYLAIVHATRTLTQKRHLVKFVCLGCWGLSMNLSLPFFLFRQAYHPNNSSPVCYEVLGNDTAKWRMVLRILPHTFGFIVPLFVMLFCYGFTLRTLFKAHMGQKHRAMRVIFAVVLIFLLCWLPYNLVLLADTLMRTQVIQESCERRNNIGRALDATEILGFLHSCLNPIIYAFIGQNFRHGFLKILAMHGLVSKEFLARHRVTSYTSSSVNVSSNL
Experimental: To determine the specificity of the antibodies for CXCR5, the binding of the antibodies to cells expressing other […] was assessed. Briefly, FlowCellect chemokine receptor cell lines expressing CXCR1, CXCR2, or CXCR3 (EMD Millipore, Billerica, Mass.), and Jurkats (ATCC, Manassas, Va.), which express CXCR4, were stained with 5 μg/ml or 10 μg/ml of each anti-CXCR5 chimeric antibody. The cells were then incubated with goat anti-human conjugated with PE (Southern Biotech, Birmingham, Ala.) prior to analysis by flow cytometry using a FACSVerse Analyzer (BD Biosciences, Franklin Lakes, N.J.).

[3] = target: T1, human CXCR5; experiment: cell-based or functional assay; remark: listed apart in the source
[4] = target: T3, rabbit CXCR5 ortholog (rabbit, UniProt G1TNG1 1-374); experiment: not described
T3 sequence: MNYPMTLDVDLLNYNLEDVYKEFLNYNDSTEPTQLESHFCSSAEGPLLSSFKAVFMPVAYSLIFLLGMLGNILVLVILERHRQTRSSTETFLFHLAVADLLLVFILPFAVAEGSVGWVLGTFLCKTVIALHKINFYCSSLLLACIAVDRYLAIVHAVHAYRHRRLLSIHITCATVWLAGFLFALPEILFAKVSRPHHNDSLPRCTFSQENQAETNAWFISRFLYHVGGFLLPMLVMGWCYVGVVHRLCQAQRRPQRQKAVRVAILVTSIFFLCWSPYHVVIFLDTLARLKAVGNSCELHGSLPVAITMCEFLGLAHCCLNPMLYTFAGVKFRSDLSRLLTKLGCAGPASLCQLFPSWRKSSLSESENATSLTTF

[5] = target: T4, rat CXCR5 ortholog (rat, UniProt P34997 1-374); experiment: not described
T4 sequence (looked up): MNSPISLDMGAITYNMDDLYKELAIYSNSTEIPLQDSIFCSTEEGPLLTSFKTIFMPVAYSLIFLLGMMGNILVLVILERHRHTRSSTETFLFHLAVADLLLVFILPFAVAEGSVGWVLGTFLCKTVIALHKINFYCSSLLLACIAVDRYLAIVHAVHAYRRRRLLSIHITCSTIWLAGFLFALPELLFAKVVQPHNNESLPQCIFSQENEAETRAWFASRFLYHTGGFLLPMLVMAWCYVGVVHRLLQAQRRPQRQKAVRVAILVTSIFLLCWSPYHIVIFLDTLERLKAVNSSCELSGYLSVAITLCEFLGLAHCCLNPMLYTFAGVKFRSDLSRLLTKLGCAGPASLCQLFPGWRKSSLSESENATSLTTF

[6] = target: T1, human CXCR5; experiment: flow cytometry, human PBMC Tfh-like cells
Experimental: The apparent affinity for cell surface CXCR5 of chimeric and humanized CXCR5 fucosylated and afucosylated antibodies was assessed. More specifically, to determine the apparent affinity of chimeric and humanized CXCR5 antibodies to CXCR5-expressing cells, cell binding experiments were performed on human and cynomolgus monkey peripheral blood mononuclear cells (PBMCs) and human tonsillar mononuclear cells (TMCs). The apparent affinity of CXCR5 mab binding to CXCR5+ cells (B cells, bona fide Tfh cells, and circulating Tfh-like cells) was calculated as the EC50 of equilibrium binding titration curves in which the geometric mean fluorescence intensity (gMFI) of the antigen binding population was quantified by flow cytometry.
Following isolation, PBMCs were plated at a density of 1.0×10⁵ cells per well and CD4+ TMCs were plated at a density of 2.0×10⁵ cells per well in isolation buffer (PBS containing 1% FBS and 1 mM EDTA) in 96 well U-bottom plates. The plates were then centrifuged at 1500 rpm for 5 minutes at room temperature. PBMCs and CD4+ TMCs were resuspended in Fluorescence-activated cell sorting (FACS) buffer (PBS containing 1% FBS) containing human crystallized fragment Fc block (2 μL per well; Biolegend) and 4-fold serial dilutions of the antibodies (11-point dilution series, beginning at 5000 ng/mL for PBMCs and 312.5 ng/mL for CD4+ TMCs) and incubated on ice for 2 hours. […]

B1: 2C9 (reference antibody) (antibody, human IgG1, kappa, V domains shown)
VH: EVQLVESGGGLVKPGGSLRLSCAASGFTFSTNAMNWVRQAPGKGLERVARIRSKSNNYATYYADSVKDRFTISRDDSKNTLYLQMNSLKTEDTAVYYCVTMIPFAYWGQGTLVTVSS
VL: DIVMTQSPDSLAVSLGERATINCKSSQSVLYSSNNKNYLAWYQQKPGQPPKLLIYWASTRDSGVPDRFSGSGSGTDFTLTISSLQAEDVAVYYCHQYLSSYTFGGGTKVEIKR
notes: fucosylated
- Ca2+ flux IC50 [1]: 3.49 nM

B2: Chimeric 11G2 (antibody, human IgG1, kappa, V domains shown)
VH: EVKLVESGGGLVQPGGSLRLSCATSGFTFTDFYMSWVRQPPGRALEWLGFIRNKANGYTTEYSASVKGRFTISRDNSQSILYLQMNTLRAGDSATYYCVRVYGSTLHYWGQGTILTVSS
VL: DVVVTQSPDSLAVSLGQRATISCRASESVEYHGTSLMHWYQQKPGQPPKLLIYAASNVESGVPARFSGSGSGTDFSLNIHPVEEGDIAMYFCQQSRKVPWTFGGGTKLEIKR
notes: mouse V regions on human IgG1/kappa; also called 11G2 (chimeric)
- binding result [2]: no binding (tested: 5 or 10 µg/ml (not on the sheet))

B3: Afucosyl humanized 11G2 154/155 (antibody, human IgG1, kappa, V domains shown)
VH: EVQLVESGGGLVQPGGSLRLSCAASGFTFTDFYMSWVRQAPGKGLEWVGFIRNKANGYTTEYSASVKGRFTISRDNAKNSLYLQMNSLRAEDTAVYYCARVYGSTLHYWGQGTLVTVSS
VL: DIQMTQSPSSLSASVGDRVTITCRASESVEYHGTSLMHWYQQKPGKAPKLLIYAASNVESGVPSRFSGSGSGTDFTLTISSLQPEDFATYYCQQSRKVPWTFGQGTKVEIKR
modifications: afucosylated Fc glycan (Asn297)
notes: also called afucosyl h11G2 XC154/XC155; afucosylated h11G2 VL XC154/VH XC155
- ADCC (EC50, pM) [3]: 2.38 pM
- binding result [4]: no binding
- binding result [5]: no binding
- EC50 [6]: 0.00589 nM

Reference: patent publication US20210101970A1 (Pfizer, published 2021)
